Test results taken from paper PMC11477680, “A Label-Free Electrochemical Aptamer Sensor for Sensitive Detection of Cardiac Troponin I Based on AuNPs/PB/PS/GCE”.

How the values were obtained:
myoglobin (Myo) = molecular target: T1, myoglobin (Myo) (UniProt P02144 2-154); assay: electrochemical aptasensor (DPV); 1 ng/mL; negligible current change; Aptamer immobilization: 20 mM Tris-HCl, 5 mM MgCl2, 50 mM NaCl, pH 7.4, 4 C; cTnI incubation 1 h (serum samples: 10% serum in 20 mM Tris-HCl, 150 mM NaCl, pH 7.4, 37 C); DPV read in 0.8 M KNO3, CV/EIS in 0.1 M PBS with 5 mM [Fe(CN)6]3-/4-; settings: protein: commercial
T1 sequence: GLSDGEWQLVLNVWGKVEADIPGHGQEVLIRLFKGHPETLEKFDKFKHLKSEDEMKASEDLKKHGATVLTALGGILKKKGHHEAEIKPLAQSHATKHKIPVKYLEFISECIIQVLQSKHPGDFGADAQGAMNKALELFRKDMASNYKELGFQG

[1] = molecular target: cardiac troponin I (cTnI) (UniProt P19429 2-210); assay: electrochemical aptasensor (DPV, CV, EIS); DPV response 10 fg/mL-1.0 ug/mL, LOD 2.03 fg/mL; Rct 514 to 606 ohm with 100 ng/mL cTnI; Aptamer immobilization: 20 mM Tris-HCl, 5 mM MgCl2, 50 mM NaCl, pH 7.4, 4 C; cTnI incubation 1 h (serum samples: 10% serum in 20 mM Tris-HCl, 150 mM NaCl, pH 7.4, 37 C); DPV read in 0.8 M KNO3, CV/EIS in 0.1 M PBS with 5 mM [Fe(CN)6]3-/4-; settings: protein: commercial
Sequence of cardiac troponin I (cTnI) (P19429 2-210): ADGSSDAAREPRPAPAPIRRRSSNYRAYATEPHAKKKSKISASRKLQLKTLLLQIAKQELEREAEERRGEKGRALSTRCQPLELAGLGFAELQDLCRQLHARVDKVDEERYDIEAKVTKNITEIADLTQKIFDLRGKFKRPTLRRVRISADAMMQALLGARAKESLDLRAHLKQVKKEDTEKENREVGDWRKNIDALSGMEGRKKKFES

CGTGCAGTACGCCAACCTTTCTCATGCGCTGCCCCCCTCTTA (ssDNA, 5'-SH-(C6) thiol linker) [Tro4]: no binding (myoglobin (Myo)); binds [1].
